B1: Semaphorin-6A (Mus musculus), O35464-1 (parent)
chain: MRPAALLLCLTLLHCAGAGFPEDSEPISISHGNYTKQYPVFVGHKPGRNTTQRHRLDIQMIMIMNRTLYVAARDHIYTVDIDTSHTEEIYCSKKLTWKSRQADVDTCRMKGKHKDECHNFIKVLLKKNDDTLFVCGTNAFNPSCRNYRVDTLETFGDEFSGMARCPYDAKHANIALFADGKLYSATVTDFLAIDAVIYRSLGDSPTLRTVKHDSKWLKEPYFVQAVDYGDYIYFFFREIAVEYNTMGKVVFPRVAQVCKNDMGGSQRVLEKQWTSFLKARLNCSVPGDSHFYFNILQAVTDVIRINGRDVVLATFSTPYNSIPGSAVCAYDMLDIANVFTGRFKEQKSPDSTWTPVPDERVPKPRPGCCAGSSSLEKYATSNEFPDDTLNFIKTHPLMDEAVPSIINRPWFLRTMVRYRLTKIAVDNAAGPYQNHTVVFLGSEKGIILKFLARIGSSGFLNGSLFLEEMNVYNPEKCSYDGVEDKRIMGMQLDRASGSLYVAFSTCVIKVPLGRCERHGKCKKTCIASRDPYCGWVRESGSCAHLSPLSRLTFEQDIERGNTDGLGDCHNSFVALNGHASSLYPSTTTSDSASRDGYESRGGMLDWNDLLEAPGSTDPLGAVSSHNHQDKKGVIRESYLKSNDQLVPVTLLAIAVILAFVMGAVFSGIIVYCVCDHRRKDVAVVQRKEKELTHSRRGSMSSVTKLSGLFGDTQSKDPKPEAILTPLMHNGKLATPSNTAKMLIKADQHHLDLTALPTPESTPTLQQKRKPNRGSREWERNQNIINACTKDMPPMGSPVIPTDLPLRASPSHIPSVVVLPITQQGYQHEYVDQPKMSEVVAQMALEDQAATLEYKTIKEHLSSKSPNHGVNLVENLDSLPPKVPQREASLGPPGTSLSQTGLSKRLEMQHSSSYGLEYKRSYPTNSLTRSHQTTTLKRNNTNSSNSSHLSRNQSFGRGDNPPPAPQRVDSIQVHSSQPSGQAVTVSRQPSLNAYNSLTRSGLKRTPSLKPDVPPKPSFAPLSTSMKPNDACT
B2: Plexin-A2 (Mus musculus), P70207 (parent)
chain: MEQRRFYLRAMQADNLSVVLLSVAWLLLARGTTGMPQYSTFHSENRDWTFNHLTVHRRTGAVYVGAINRVYKLTGNLTIQVAHKTGPEEDNKACYPPLIVQPCSEVLTLTNNVNKLLIIDYSENRLLACGSLYQGVCKLLRLDDLFILVEPSHKKEHYLSSVNKTGTMYGVIVRSEGEDGKLFIGTAVDGKQDYFPTLSSRKLPRDPESSAMLDYELHSDFVSSLIKIPSDTLALVSHFDIFYIYGFASGGFVYFLTVQPETPDGMAINSAGDLFYTSRIVRLCKDDPKFHSYVSLPFGCTRAGVEYRLLQAAYLAKPGEALAQAFNISSDEDVLFAIFSKGQKQYHHPPDDSALCAFPIRAINLQIKERLQSCYHGEGNLELNWLLGKDVQCTKAPVPIDDNFCGLDINQPLGGSTPVEGLTLYTTSRDRLTSVASYVYNGYSVVFVGTKSGKLKKIRADGPPHGGVQYEMVSVFKDGSPILRDMAFSINQLYLYVMSERQVTRVPVESCEQYTTCGECLSSGDPHCGWCALHNMCSRRDKCQRAWEANRFAASISQCMSLEVHPNSISVSDHSRLLSLVVNDAPNLSEGIACAFGNLTEVEGQVSGSQVICISPGPKDVPVIPLDQDWFGLELQLRSKETGKIFVSTEFKFYNCSAHQLCLSCVNSAFRCHWCKYRNLCTHDPTTCSFQEGRINVSEDCPQLVPTEEILIPVGEVKPITLKARNLPQPQSGQRGYECVLSIQGAVHRVPALRFNSSSVQCQNSSYQYDGMDISNLAVDFAVVWNGNFIIDNPQDLKVHLYKCAAQRESCGLCLKADHKFECGWCSGERRCTLHQHCPSTSSPWLDWSSHNVKCSNPQITEILTVSGPPEGGTRVTIHGVNLGLDFSEIAHHVQVAGVPCTPIPGEYIIAEQIVCEMGHAVIGTTSGPVRLCIGECKPEFMTKSHQQYTFVNPSVLSLSPIRGPESGGTMVTITGHYLGAGSSVAVYLGNQTCEFYGRSMNEIVCVSPPSSNGLGPVPVSVSVDRARVDSSLQFEYIDDPRVQRIEPEWSITSGHTPLTITGFNLDVIQEPRVRVKFNGKESVNVCTVVNTTTLTCLAPSLTSDYRPGLDTVERPDEFGFLFNNVQSLLIYNDTKFIYYPNPTFELLSPTGILDQKPGSPIILKGKNLCPPASGGAKLNYTVMIGETPCTVTVSETQLLCEPPNLTGQHKVMVHVGGMVFSPGSVSVISDSLLTLPAIISIAAGGSLLLIIVIIVLIAYKRKSRENDLTLKRLQMQMDNLESRVALECKEAFAELQTDINELTSDLDRSGIPYLDYRTYAMRVLFPGIEDHPVLRELEVQGNGQQHVEKALKLFAQLINNKVFLLTFIRTLELQRSFSMRDRGNVASLIMTGLQGRLEYATDVLKQLLSDLIDKNLENKNHPKLLLRRTESVAEKMLTNWFAFLLHKFLKECAGEPLFMLYCAIKQQMEKGPIDAITGEARYSLSEDKLIRQQIEYKTLILNCVNPDNENSPEIPVKVLNCDTITQVKEKILDAVYKNVPYSQRPRAVDMDLEWRQGRIARVVLQDEDITTKIEGDWKRLNTLMHYQVSDRSVVALVPKQTSSYNIPASASISRTSISRYDSSFRYTGSPDSLRSRVPMITPDLESGVKVWHLVKNHDHGDQKEGDRGSKMVSEIYLTRLLATKGTLQKFVDDLFETLFSTVHRGSALPLAIKYMFDFLDEQADRHSIHDTDVRHTWKSNCLPLRFWVNVIKNPQFVFDIHKGSITDACLSVVAQTFMDSCSTSEHRLGKDSPSNKLLYAKDIPSYKNWVERYYADIAKLPAISDQDMNAYLAEQSRLHATEFNMLSALNEIYSYVSKYSEELIGALEQDEQARRQRLAYKVEHLINAMSIES
partner: B1 chain

Variants of: B1
Conditions: with plxa2_mouse Plxna2, P70207

Variant | effect of a mutation on the interaction
L191R | decreasing interaction

Variants of: B2
Conditions: with Sema6a

Variant | effect of a mutation on the interaction
F221R | disrupting interaction
A396E | disrupting interaction
